# Measurements published in article PMC12287357 (2025).
# B1: recombinant His6-STAT3^127-715 (domain or fragment)
# chain: GQANHPTAAVVTEKQQMLEQHLQDVRKRVQDLEQKMKVVENLQDDFDFNYKTLKSQGDMQDLNGNNQSVTRQKMQQLEQMLTALDQMRRSIVSELAGLLSAMEYVQKTLTDEELADWKRRQQIACIGGPPNICLDRLENWITSLAESQLQTRQQIKKLEELQQKVSYKGDPIVQHRPMLEERIVELFRNLMKSAFVVERQPCMPMHPDRPLVIKTGVQFTTKVRLLVKFPELNYQLKIKVCIDKDSGDVAALRGSRKFNILGTNTKVMNMEESNNGSLSAEFKHLTLREQRCGNGGRANCDASLIVTEELHLITFETEVYHQGLKIDLETHSLPVVVISNICQMPNAWASILWYNMLTNNPKNVNFFTKPPIGTWDQVAEVLSWQFSSTTKRGLSIEQLTTLAEKLLGPGVNYSGCQITWAKFCKENMAGKGFSFWVWLDNIIDLVKKYILALWNEGYIMGFISKERERAILSTKPPGTFLLRFSESSKEGGVTFTWVEKDISGKTQIQSVEPYTKQQLNNMSFAEIIMGYKIMDATNILVSPLVYLYPDIPKEEAFGKYCRPESQEHPEADPGSAAPYLKTKFICVTP
# Biological target: SteE_pS141pY143
# Test: BLI
binder,measurement,value
B1,Kd,1400 nM
